The values below come from patent US20230050615A1 (Ablynx, published 2023).

Experiment [1] has as its target T1, human serum albumin (Sigma-Aldrich A3782) (human, UniProt P02768 25-609).
T1 construct: Bought protein; also called HSA; human SA
Put plainly: competition ELISA on coated human serum albumin; tracer 1.5 nM [SEQ ID NO:1-cMycHis6] detected with anti-cMyc. Background: An ELISA detects its analyte on a solid surface through an enzyme-linked reagent.

The target of experiment [2] is T1, human serum albumin (Sigma-Aldrich …). Put plainly: SPR (ProteOn XPR36), albumin immobilised, pH 7.4.
Experiment [3] concerns the target T2, cynomolgus monkey serum albumin (generated in-house) (cynomolgus monkey, UniProt A2V9Z4 25-608, limits assumed).
T2 construct: also called cyno SA
Put plainly: SPR (ProteOn XPR36), albumin immobilised, pH 7.4.

Experiment [4] deals with T3, rat serum albumin (Sigma-Aldrich A4538) (rat, UniProt P02770 25-608).
T3 construct: Bought protein; also called rat SA
Kind of experiment: SPR (ProteOn XPR36), albumin immobilised, pH 7.4.

Experiment [5] has as its target T4, mouse serum albumin (Albumin Bioscience 2601) (mouse, UniProt P07724 25-608).
T4 construct: Bought protein; also called mouse SA
Kind of experiment: SPR (ProteOn XPR36), albumin immobilised, pH 7.4.

Experiment [6] addresses T5, guinea pig serum albumin (Gentaur GPSA62) (guinea pig).
T5 construct: also called guinea pig SA
Put plainly: SPR (ProteOn XPR36), albumin immobilised, pH 7.4.

Experiment [7] addresses T1, human serum albumin (Sigma-Aldrich …). Kind of experiment: SPR (ProteOn), HSA immobilised, 500 nM injected, dissociation at pH 5.0.
Experiment [8] shares this target. Kind of experiment: SPR (ProteOn), HSA immobilised, 500 nM injected, dissociation at pH 6.0.
The target is the same in experiment [9]. Put plainly: SPR (ProteOn), HSA immobilised, 500 nM injected, dissociation at pH 7.4.

B1: [His6Flag3-SEQ ID NO:15] (VHH)
VHH: EVQLVESGGGLVQAGGSLRLSCAASGLTFSSYAMGWFRQAPGKERERVVSISRGGGYTYYADSVKGRFTISRDNAENTVYLQMNSLKPEDTAVYYCAAARYWATGSEYEFDYWGQGTLVTVSS
notes: not shown: N-terminal His6-Flag3 tag
For B1, the “IC50 (read off the curve)” value in experiment [1] was roughly 0.8 nM.

B2: serum albumin binder of SEQ ID NO:15 (T0235005D04, wild type) (VHH)
VHH: EVQLVESGGGLVQAGGSLRLSCAASGLTFSSYAMGWFRQAPGKERERVVSISRGGGYTYYADSVKGRFTISRDNAENTVYLQMNSLKPEDTAVYYCAAARYWATGSEYEFDYWGQGTLVTVSS
notes: no tag is stated for these experiments
One may read the Kd as the equilibrium constant for the complex coming apart. Usually koff stands for the rate constant with which the complex falls apart. By kon is commonly meant the rate constant with which the complex forms. In the case of B2, the Kd in [2] amounted to 0.19 nM; in experiment [3], 0.12 nM; in experiment [4], 21 nM; in experiment [5], 1.9 nM; in experiment [6], 1.5 nM. The off-rate constant (koff) in [2] is 0.00015 s⁻¹; in [3], 9.4e-05 s⁻¹; in experiment [4], 0.022 s⁻¹; in [5], 0.0024 s⁻¹; in experiment [6] it was 0.0021 s⁻¹; in [7], 5.8e-05 s⁻¹. For the same molecule, the koff amounted to 6.9e-05 s⁻¹ in experiment [8] and 0.00011 s⁻¹ in experiment [9]. The kon in [2] was 810000 M⁻¹ s⁻¹; in experiment [3], 770000 M⁻¹ s⁻¹; in [4], 1e+06 M⁻¹ s⁻¹; in experiment [5] it was 1.2e+06 M⁻¹ s⁻¹; in experiment [6], 1.4e+06 M⁻¹ s⁻¹.
